From patent US20110300158A1 (GlaxoSmithKline, published 2011) come the findings set out here.

In experiment [1] the target is T1, Human Serum Albumin (human, UniProt P02768 25-609).
T1 construct: immobilised on CM5 chips; also called HSA; human SA
Nature of the experiment: SPR (BIAcore). A general note: Surface plasmon resonance follows binding to a sensor surface in real time, without labels.
Protocol: (§1) Binding to HSA, CSA, MSA and RSA by BIAcore was confirmed using purified protein at 3 concentrations 1 μM, 500 nM and 50 nM.

The target of experiment [2] is T2, Cynomolgus monkey Serum Albumin (Cynomolgus monkey, UniProt A2V9Z4 25-608).
T2 construct: also called CSA; cyno SA
Nature of the experiment: SPR (BIAcore).
Protocol: as §1

In experiment [3] the target is T3, mouse serum albumin (mouse, UniProt P07724 25-608).
T3 construct: also called MSA; mouse SA
Put plainly: SPR (BIAcore).
Protocol: as §1

The target of experiment [4] is T4, Rat Serum Albumin (rat, UniProt P02770 25-608).
T4 construct: also called RSA; rat SA
Put plainly: SPR (BIAcore).
Protocol: as §1

In experiment [5] the target is T2, Cynomolgus monkey Serum Albumin. Put plainly: SPR (BIAcore), second independent experiment.
Experiment [6] addresses T3, mouse serum albumin. Nature of the experiment: SPR (BIAcore), second independent experiment.
The target in experiment [7] is T4, Rat Serum Albumin. Put plainly: SPR (BIAcore), second independent experiment.
Experiment [8] deals with T1, Human Serum Albumin. Put plainly: SPR (BIAcore), second independent experiment.
Experiment [9] has as its target T4, Rat Serum Albumin. Put plainly: SPR (BIAcore), DOM1m-21-23 fusion against unfused dAb.
Experiment [10] has as its target T4, Rat Serum Albumin. Put plainly: SPR (BIAcore), DOM1m-21-23 fusion; albumin taken as RSA from the sentence before; fused to DOM1m21-23.

T2 sequence (A2V9Z4 25-608 limits assumed): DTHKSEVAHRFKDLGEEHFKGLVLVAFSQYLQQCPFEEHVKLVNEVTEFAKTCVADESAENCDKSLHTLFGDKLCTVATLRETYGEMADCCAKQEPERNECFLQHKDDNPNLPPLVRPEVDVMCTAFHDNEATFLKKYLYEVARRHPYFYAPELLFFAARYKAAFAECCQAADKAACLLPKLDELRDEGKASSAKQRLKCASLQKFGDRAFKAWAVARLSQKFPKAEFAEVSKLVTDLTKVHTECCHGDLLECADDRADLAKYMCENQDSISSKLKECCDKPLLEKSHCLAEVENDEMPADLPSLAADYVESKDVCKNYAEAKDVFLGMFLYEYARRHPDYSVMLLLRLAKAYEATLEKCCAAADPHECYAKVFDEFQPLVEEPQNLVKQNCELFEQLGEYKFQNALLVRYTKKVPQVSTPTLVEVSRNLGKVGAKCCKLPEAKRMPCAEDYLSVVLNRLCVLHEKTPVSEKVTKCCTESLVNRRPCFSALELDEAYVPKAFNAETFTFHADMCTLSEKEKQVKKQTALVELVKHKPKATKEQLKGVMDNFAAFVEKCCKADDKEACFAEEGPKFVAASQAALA
T3 sequence (P07724 25-608 limits assumed): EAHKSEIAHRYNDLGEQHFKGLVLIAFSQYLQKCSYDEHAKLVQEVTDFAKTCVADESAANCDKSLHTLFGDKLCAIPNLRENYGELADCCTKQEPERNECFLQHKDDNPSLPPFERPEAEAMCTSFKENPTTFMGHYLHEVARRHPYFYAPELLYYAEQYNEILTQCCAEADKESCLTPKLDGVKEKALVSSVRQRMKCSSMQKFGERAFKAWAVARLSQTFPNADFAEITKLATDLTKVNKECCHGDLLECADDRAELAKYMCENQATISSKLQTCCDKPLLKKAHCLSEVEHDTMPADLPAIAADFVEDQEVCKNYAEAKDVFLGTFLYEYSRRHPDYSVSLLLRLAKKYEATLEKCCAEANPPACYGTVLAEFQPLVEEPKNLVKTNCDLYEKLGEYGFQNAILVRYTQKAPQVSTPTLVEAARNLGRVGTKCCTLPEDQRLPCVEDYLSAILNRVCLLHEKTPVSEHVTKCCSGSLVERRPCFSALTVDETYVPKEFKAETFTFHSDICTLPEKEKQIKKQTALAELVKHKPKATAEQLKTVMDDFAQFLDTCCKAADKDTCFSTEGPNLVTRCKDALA
T4 sequence (P02770 25-608 limits assumed): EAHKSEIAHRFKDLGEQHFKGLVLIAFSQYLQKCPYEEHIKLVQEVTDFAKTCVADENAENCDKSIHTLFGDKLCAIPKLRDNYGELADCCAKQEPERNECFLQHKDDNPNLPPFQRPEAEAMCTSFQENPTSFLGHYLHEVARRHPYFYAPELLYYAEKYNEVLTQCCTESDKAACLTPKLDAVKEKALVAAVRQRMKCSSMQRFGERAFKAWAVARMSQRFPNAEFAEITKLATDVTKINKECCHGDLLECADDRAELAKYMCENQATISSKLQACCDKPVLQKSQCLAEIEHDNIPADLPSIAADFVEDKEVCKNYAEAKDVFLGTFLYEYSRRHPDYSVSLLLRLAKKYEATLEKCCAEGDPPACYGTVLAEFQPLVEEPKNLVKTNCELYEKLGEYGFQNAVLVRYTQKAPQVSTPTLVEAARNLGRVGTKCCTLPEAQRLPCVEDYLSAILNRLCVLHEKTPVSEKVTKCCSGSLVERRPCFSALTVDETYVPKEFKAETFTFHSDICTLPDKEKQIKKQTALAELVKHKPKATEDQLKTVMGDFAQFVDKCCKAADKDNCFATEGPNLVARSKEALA

B1: DOM7h-11 (other)
VL: DIQMTQSPSSLSASVGDRVTITCRASRPIGTTLSWYQQKPGKAPKLLIWFGSRLQSGVPSRFSGSGSGTDFTLTISSLQPEDFATYYCAQAGTHPTTFGQGTKVEIKR
notes: Parental Vk dAb; also called DOM7h-12
For B1, in the experiment with Human Serum Albumin [1], the Kd was found to be 2800 nM, the koff came to 0.641 s⁻¹ and the kon amounted to 700000 M⁻¹ s⁻¹.

B2: DOM7h-11-15 (other)
VL: DIQMTQSPSSLSASVGDRVTITCRASRPIGTMLSWYQQKPGKAPKLLILAFSRLQSGVPSRFSGSGSGTDFTLTISSLQPEDFATYYCAQAGTHPTTFGQGTKVEIKR
notes: Vk dAb; pDOM5 myc tag not included; also called DOM7-11-15; DOM7h-12-15
In experiment [2], B2 came in with a kon of 5.8e+06 M⁻¹ s⁻¹.

B3: DOM7h-14-28 (other)
VL: DIQMTQSPSSLSASVGDRVTITCRASQWIGSQLSWYQQKPGKAPKLLIMWRSSLQSGVPSRFSGSGSGTDFTLTISSLQPEDFATYYCAQGAALPKTFGQGTKVEIKR
notes: Vk dAb; tag not included
B3: the Kd in experiment [2] stood at 66 nM; with mouse serum albumin [3], 26 nM; with Rat Serum Albumin [4], 45 nM; in the experiment with Human Serum Albumin [1], 30 nM; in experiment [5], 0.136 µM; with mouse serum albumin [6], 31 nM. Further, the Kd with Rat Serum Albumin [7] turned out to be 0.14 µM; in the experiment with Human Serum Albumin [8], 8.26 µM. For the same molecule, the koff in [2] was found to be 0.13 s⁻¹; in the experiment with mouse serum albumin [3] it was 0.034 s⁻¹; with Rat Serum Albumin [4], 0.07 s⁻¹; with Human Serum Albumin [1], 0.033 s⁻¹; in experiment [5], 0.134 s⁻¹; in the experiment with mouse serum albumin [6], 0.0715 s⁻¹. Besides, the koff with Rat Serum Albumin [7] was found to be 0.114 s⁻¹; with Human Serum Albumin [8] it was 0.056 s⁻¹. Further, the kon came out at 2.5e+06 M⁻¹ s⁻¹ in experiment [2]; 1.6e+06 M⁻¹ s⁻¹ in the experiment with mouse serum albumin [3]; 2.1e+06 M⁻¹ s⁻¹ with Rat Serum Albumin [4]; 1.24e+06 M⁻¹ s⁻¹ with Human Serum Albumin [1]; 980000 M⁻¹ s⁻¹ in [5]; 2.28e+06 M⁻¹ s⁻¹ in the experiment with mouse serum albumin [6]. For the same molecule, the kon with Rat Serum Albumin [7] came to 830000 M⁻¹ s⁻¹; with Human Serum Albumin [8], 6780 M⁻¹ s⁻¹.

B4: DOM7h-14-36 (other)
VL: DIQMTQSPSSLSASVGDRVTITCRASQWIGSQLSWYQQKPGKAPKLLIMWRSSLQSGVPSRFSGSGSGTDFTLTISSLQPEDFATYYCAQGFKKPRTFGQGTKVEIKR
notes: Vk dAb; tag not included
As to B4, the Kd was determined as 35 nM in the experiment with mouse serum albumin [3]; 30 nM in the experiment with Rat Serum Albumin [4]; 7.83 µM in [5]; 33 nM with mouse serum albumin [6]; 6.12 µM with Rat Serum Albumin [7]; 1.26 µM in the experiment with Human Serum Albumin [8]. Moreover, the off-rate (koff) with mouse serum albumin [3] amounted to 0.023 s⁻¹; with Rat Serum Albumin [4], 0.029 s⁻¹; in experiment [5] it was 0.11 s⁻¹; with mouse serum albumin [6] it was 0.0706 s⁻¹; with Rat Serum Albumin [7], 0.0554 s⁻¹; with Human Serum Albumin [8] it was 0.067 s⁻¹. The kon turned out to be 870000 M⁻¹ s⁻¹ with mouse serum albumin [3]; 1.55e+06 M⁻¹ s⁻¹ with Rat Serum Albumin [4]; 14300 M⁻¹ s⁻¹ in [5]; 2.11e+06 M⁻¹ s⁻¹ with mouse serum albumin [6]; 9000 M⁻¹ s⁻¹ with Rat Serum Albumin [7]; 54000 M⁻¹ s⁻¹ in the experiment with Human Serum Albumin [8].

B5: DOM7h-11-12/DOM1m-21-23 fusion DMS number 5516 (bispecific antibody)
chain: EVQLLESGGGLVQPGGSLRLSCAASGFTFNRYSMGWLRQAPGKGLEWVSRIDSYGRGTYYEDPVKGRFSISRDNSKNTLYLQMNSLRAEDTAVYYCAKISQFGSNAFDYWGQGTQVTVSSASTSGPSDIQMTQSPSSLSASVGDRVTITCRASRPIGTMLSWYQQKPGKAPKLLILFGSRLQSGVPSRFSGSGSGTDFTLTISSLQPEDFATYYCAQAGTHPTTFGQGTKVEIKRAAAEQKLISEEDLN
notes: also called DMS5516
With B5, the “fold decrease in affinity compared to the unfused AlbudAb” value with Rat Serum Albumin [9] was 2 fold.

B6: DOM7h-11/DOM1m-21-23 fusion DMS number 5515 (bispecific antibody)
chain: EVQLLESGGGLVQPGGSLRLSCAASGFTFNRYSMGWLRQAPGKGLEWVSRIDSYGRGTYYEDPVKGRFSISRDNSKNTLYLQMNSLRAEDTAVYYCAKISQFGSNAFDYWGQGTQVTVSSASTSGPSDIQMTQSPSSLSASVGDRVTITCRASRPIGTTLSWYQQKPGKAPKLLIWFGSRLQSGVPSRFSGSGSGTDFTLTISSLQPEDFATYYCAQAGTHPTTFGQGTKVEIKRAAAEQKLISEEDLN
notes: also called DMS5515; 'the DOM7h-12 clone' when fused
In the experiment with Rat Serum Albumin [10], B6 gave a Kd of 2800 nM.

B7: DOM7h-11-15/DOM1m-21-23 fusion DMS number 5517 (bispecific antibody)
chain: EVQLLESGGGLVQPGGSLRLSCAASGFTFNRYSMGWLRQAPGKGLEWVSRIDSYGRGTYYEDPVKGRFSISRDNSKNTLYLQMNSLRAEDTAVYYCAKISQFGSNAFDYWGQGTQVTVSSASTSGPSDIQMTQSPSSLSASVGDRVTITCRASRPIGTMLSWYQQKPGKAPKLLILAFSRLQSGVPSRFSGSGSGTDFTLTISSLQPEDFATYYCAQAGTHPTTFGQGTKVEIKRAAAEQKLISEEDLN
notes: also called DMS5517
For B7, the “fold decrease in affinity compared to the unfused AlbudAb” value with Rat Serum Albumin [9] was 2 fold.

A word on the Kd: it is a measure of binding affinity in units of concentration. Usually koff stands for the first-order rate constant of dissociation. In general, kon refers to a measure of how fast the partners come together.
